Reference: patent US20240366814A1 (University of California, published 2024)

T1: CUB domain-containing protein 1 (CDCP1), human, on the surface of human bladder cancer cell lines (human, UniProt Q9H5V8 30-836)
T1 construct: whole, on cells; Endogenous CDCP1 on UMUC3, TCC SUP, 5637, UMUC9 and other bladder cancer lines; also called SIMA135; CD318
T1 sequence (looked up): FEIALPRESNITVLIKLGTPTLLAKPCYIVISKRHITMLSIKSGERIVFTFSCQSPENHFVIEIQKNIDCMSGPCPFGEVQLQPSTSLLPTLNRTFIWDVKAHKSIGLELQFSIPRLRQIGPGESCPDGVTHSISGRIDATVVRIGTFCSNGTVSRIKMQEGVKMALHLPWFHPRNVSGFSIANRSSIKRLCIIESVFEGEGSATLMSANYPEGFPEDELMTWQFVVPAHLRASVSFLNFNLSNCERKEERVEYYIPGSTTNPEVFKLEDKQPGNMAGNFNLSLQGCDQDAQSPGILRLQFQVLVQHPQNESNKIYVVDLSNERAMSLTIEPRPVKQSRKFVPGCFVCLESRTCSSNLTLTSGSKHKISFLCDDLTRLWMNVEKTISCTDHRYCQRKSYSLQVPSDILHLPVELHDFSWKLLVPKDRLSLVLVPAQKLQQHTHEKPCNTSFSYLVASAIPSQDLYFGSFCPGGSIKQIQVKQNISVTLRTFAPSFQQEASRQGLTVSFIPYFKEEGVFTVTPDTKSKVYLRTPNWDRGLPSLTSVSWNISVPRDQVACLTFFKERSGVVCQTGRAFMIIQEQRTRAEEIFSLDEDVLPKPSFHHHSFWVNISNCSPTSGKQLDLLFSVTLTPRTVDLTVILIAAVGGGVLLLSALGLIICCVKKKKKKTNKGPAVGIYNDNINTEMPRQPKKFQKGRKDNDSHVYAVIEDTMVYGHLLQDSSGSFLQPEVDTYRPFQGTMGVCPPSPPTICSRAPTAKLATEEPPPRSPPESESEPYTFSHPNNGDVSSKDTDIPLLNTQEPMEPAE


Key:
[1] = molecular target: T1, CUB domain-containing protein 1 …; assay: flow cytometry on human bladder cancer cell lines (5637, HT-1197, HT-1397, UMUC9, 639V, T24, 253JBV, UMUC3, TCCSUP)
Description: Flow Cytometry. Cells were trypsinized and washed, and then incubated with either a PE-anti-CDCP1 antibody (Biolegend #324017, 1:100) or 4A06 for 30 minutes on ice. For cells incubated with unlabeled 4A06, after the 30 min incubation, the cells were washed with PBS multiple times and placed in a fluorophore conjugated secondary antibody solution for 30 minutes on ice (1:1000, 109-546-097, Jackson ImmunoResearch). Cells were collected and washed before being placed in PBS and passed through a cell strainer. Cells were analyzed using an Attune NxT Flow and data were analyzed using FlowJo software.
(§1) CDCP1 protein expression in human bladder cancer cell lines representing luminal (5637, HT-1197, HT-1397, UMUC9) and basal subtypes (639V, T24, 253JBV, UMUC3, TCCSUP) was evaluated. […] UMUC3 and TCC SUP had the highest expression of CDCP1, while UMUC9 and 253 JBV had the lowest relative level. Cell surface receptor numbers were further quantified using ¹²⁵I-labeled 4A06 antibody.

[2] = molecular target: T1, CUB domain-containing protein 1 …; assay: saturation binding of 125I-4A06 on 5637 cells
Description: (§2) Saturation binding assays. ¹²⁵I-4A06 was prepared as previously reported (Moroz et al., Clin Cancer Res, 6(14):3608-3615, 2020). The final yield of purified ¹²⁵I-4A06 was ˜60% (specific activity ˜1 μCi/μg) and purity was >99%. UMUC3, TCC SUP, 5637, and UMUC9 cells (0.6×10⁶ cell/well) were seeded on 12-well plates using DMEM (10% FBS). The cells were washed with PBS for the saturation binding assay. Total binding of ¹²⁵I-4A06 was determined by adding it to cell suspensions at seven concentrations from 0.025 nM to 10 nM. Non-specific binding was determined by adding 1000× cold 4A06 to ¹²⁵I-4A06/cell mixtures at three concentrations. Cells were incubated with ˜0.5 μCi ¹²⁵I-4A06 at room temperature for 1 hr, washed with PBS, and lysed by adding 1.0 M NaOH. The bound and unbound radioactive fractions were collected and measured on a Hidex Gamma counter (Turku, FI). Bmax was calculated using Prism v8.0.
as §1

[3] = molecular target: T1, CUB domain-containing protein 1 …; assay: saturation binding of 125I-4A06 on UMUC3 cells
Description: as §2, §1

[4] = molecular target: T1, CUB domain-containing protein 1 …; assay: saturation binding of 125I-4A06 on UMUC9 cells
Description: as §2, §1

[5] = molecular target: T1, CUB domain-containing protein 1 …; assay: saturation binding of 125I-4A06 on TCC SUP cells
Description: as §2, §1

binding result [1] | Kd [2] | Kd [3] | Kd [4] | Kd [5] | Binder
binds |  |  |  |  | recombinant monoclonal antibody 4A06 (IgG1 format) (antibody, V domains shown, Used unlabelled in flow cytometry, detected with a fluorophore-conjugated secondary antibody; also called CDCP1-002; 4A06 antibody) VH: EVQLVESGGGLVQPGGSLRLSCAASGFNLSYYYIHWVRQAPGKGLEWVASIYSSSSYTSYADSVKGRFTISADTSKNTAYLQMNSLRAEDTAVYYCARAYYGFDYWGQGTLVTVSS VL: DIQMTQSPSSLSASVGDRVTITCRASQSVSSAVAWYQQKPGKAPKLLIYSASSLYSGVPSRFSGSRSGTDFTLTISSLQPEDFATYYCQQSYYYYPITFGQGTKVEIK
 | 284 pM | 1840 pM | 181 pM | 583 pM | 125I-labeled 4A06 antibody (antibody, V domains shown, radioiodinated with iodine-125; labelled residues not stated, specific activity ~1 uCi/ug, purity >99%); also called ^125I-4A06; 125I-4A06) VH: EVQLVESGGGLVQPGGSLRLSCAASGFNLSYYYIHWVRQAPGKGLEWVASIYSSSSYTSYADSVKGRFTISADTSKNTAYLQMNSLRAEDTAVYYCARAYYGFDYWGQGTLVTVSS VL: DIQMTQSPSSLSASVGDRVTITCRASQSVSSAVAWYQQKPGKAPKLLIYSASSLYSGVPSRFSGSRSGTDFTLTISSLQPEDFATYYCQQSYYYYPITFGQGTKVEIK
